Source: the supplement of paper PMC11136658

Test system: peptide library, one residue held at a place counted from the Y acceptor
Assay: relative phosphorylation of the sub-library (ratio to the mean residue at this position); higher = residue favoured
How it was run: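 Purified recombinant kinases were incubated for 90 min in 384-well plates with biotinylated Tyr-centred peptide library mixtures, each fixing one residue at one position from −5 to +5, plus 50 μM ATP with γ-32P-ATP. Peptides were captured on streptavidin membranes, rinsed and quantified by phosphorimaging and ImageQuant. Intensities were normalized per position by the sum of the 18 (or 16, Ser/Thr-free library) randomized residues and multiplied by that number. Values give phosphorylation relative to the mean randomized residue.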

Sequence of EPHB2, construct: aa611-893, human (P29323 611-893, looked up): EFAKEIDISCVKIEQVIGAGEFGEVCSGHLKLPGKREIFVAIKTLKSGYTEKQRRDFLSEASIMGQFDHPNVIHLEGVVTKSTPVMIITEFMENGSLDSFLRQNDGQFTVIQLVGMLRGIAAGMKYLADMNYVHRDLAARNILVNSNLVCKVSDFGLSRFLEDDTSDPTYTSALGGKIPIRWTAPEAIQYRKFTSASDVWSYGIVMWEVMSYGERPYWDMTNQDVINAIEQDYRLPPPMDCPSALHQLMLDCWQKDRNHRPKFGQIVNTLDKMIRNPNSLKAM
Sequence of EPHB3, construct: aa623-907, human (P54753 623-907, looked up): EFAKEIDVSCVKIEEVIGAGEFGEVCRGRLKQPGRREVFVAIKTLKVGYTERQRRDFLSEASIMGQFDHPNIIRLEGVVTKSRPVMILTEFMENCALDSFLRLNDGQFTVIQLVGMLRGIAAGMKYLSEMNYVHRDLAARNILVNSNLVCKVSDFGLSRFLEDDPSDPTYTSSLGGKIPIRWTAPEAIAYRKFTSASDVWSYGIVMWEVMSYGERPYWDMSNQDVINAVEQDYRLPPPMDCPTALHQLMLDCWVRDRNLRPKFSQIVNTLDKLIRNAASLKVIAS

EPHB2, construct: aa611-893, human (from UniProt P29323)
relative phosphorylation
Conditions | at +1 | at +2 | at +3 | at +4 | at +5 | at -1 | at -2 | at -3 | at -4 | at -5
A fixed | 1.72 | 0.968 | 0.884 | 0.898 | 1.16 | 0.485 | 1.16 | 0.764 | 1.06 | 1.02
D fixed | 1.17 | 1.15 | 0.473 | 1.11 | 1.01 | 2.48 | 1.32 | 1.45 | 1.35 | 1.24
E fixed | 2.89 | 1.54 | 0.434 | 1.07 | 1.06 | 1.55 | 1.47 | 1.76 | 1.28 | 0.996
F fixed | 0.59 | 1.27 | 1.36 | 0.922 | 0.937 | 0.938 | 0.635 | 1.33 | 1.11 | 0.972
G fixed | 1.1 | 0.438 | 0.65 | 1.2 | 1.18 | 0.224 | 1.17 | 0.845 | 1.28 | 1.05
H fixed | 0.443 | 0.626 | 1.29 | 1.1 | 0.998 | 0.494 | 0.825 | 0.807 | 0.872 | 0.921
I fixed | 1.23 | 1.39 | 1.72 | 0.817 | 0.889 | 2.02 | 0.77 | 1 | 0.898 | 0.905
K fixed | 0.166 | 0.428 | 0.273 | 0.699 | 0.691 | 0.207 | 0.791 | 0.522 | 0.784 | 0.995
L fixed | 0.752 | 0.958 | 1.31 | 0.864 | 1.06 | 1.85 | 0.769 | 0.927 | 0.963 | 0.946
M fixed | 1.33 | 0.838 | 1.19 | 1.09 | 0.934 | 0.759 | 0.674 | 0.919 | 0.868 | 0.942
N fixed | 0.41 | 0.927 | 0.646 | 0.796 | 0.853 | 2.06 | 1.26 | 1.03 | 0.937 | 1.11
P fixed | 0.171 | 0.732 | 1.27 | 1.16 | 1.46 | 0.343 | 1.33 | 0.945 | 1.09 | 1.19
Q fixed | 1.2 | 0.882 | 0.762 | 0.976 | 0.868 | 0.502 | 1.17 | 0.933 | 1.25 | 1.12
R fixed | 0.22 | 0.618 | 0.433 | 0.771 | 0.756 | 0.245 | 0.749 | 0.603 | 0.802 | 0.96
S fixed | 0.992 | 0.953 | 0.769 | 1.03 | 1.11 | 0.47 | 1.43 | 0.968 | 0.898 | 0.88
T fixed | 0.766 | 1.1 | 0.908 | 0.949 | 1.05 | 1.03 | 0.923 | 0.794 | 0.667 | 0.726
V fixed | 1.77 | 1.78 | 1.92 | 1.02 | 0.934 | 1.48 | 0.878 | 0.928 | 0.851 | 0.957
W fixed | 1.07 | 1.41 | 1.7 | 1.52 | 1.04 | 0.868 | 0.657 | 1.46 | 1.05 | 1.07
pThr fixed | 1.64 | 1.98 | 0.439 | 0.858 | 0.64 | 1.77 | 1.05 | 0.962 | 0.894 | 0.877
pTyr fixed | 1.75 | 4.02 | 0.872 | 1.28 | 1.1 | 2.15 | 1.15 | 1.12 | 1.04 | 1.12

EPHB3, construct: aa623-907, human (from UniProt P54753)
relative phosphorylation
Conditions | at +1 | at +2 | at +3 | at +4 | at +5 | at -1 | at -2 | at -3 | at -4 | at -5
A fixed | 1.96 | 0.847 | 0.837 | 0.853 | 0.843 | 0.583 | 1.21 | 0.804 | 1.15 | 0.981
D fixed | 1.06 | 0.993 | 0.442 | 1.06 | 1.14 | 2.09 | 1.04 | 1.04 | 1.03 | 0.921
E fixed | 2.6 | 1.33 | 0.413 | 1.16 | 1.15 | 1.38 | 1.29 | 1.19 | 1.39 | 0.842
F fixed | 0.588 | 1.38 | 1.31 | 1.04 | 0.656 | 1.03 | 0.661 | 1.39 | 1.09 | 1.16
G fixed | 1.13 | 0.428 | 0.651 | 1.26 | 1.36 | 0.226 | 1.33 | 1.05 | 1.37 | 1.32
H fixed | 0.573 | 0.91 | 1.57 | 1.19 | 1.12 | 0.638 | 0.9 | 1.05 | 0.899 | 0.933
I fixed | 1.19 | 1.24 | 1.95 | 0.801 | 0.581 | 2.29 | 0.899 | 1.14 | 1.01 | 1.14
K fixed | 0.211 | 0.576 | 0.297 | 0.737 | 1.02 | 0.234 | 0.841 | 0.61 | 0.898 | 0.992
L fixed | 0.732 | 0.974 | 1.39 | 0.821 | 0.613 | 1.87 | 0.83 | 0.912 | 0.959 | 0.98
M fixed | 1.14 | 0.913 | 1.29 | 0.984 | 0.927 | 0.849 | 0.709 | 0.928 | 0.854 | 0.9
N fixed | 0.393 | 1.01 | 0.653 | 0.856 | 1.1 | 2.4 | 1.12 | 1.09 | 0.922 | 1.08
P fixed | 0.157 | 0.739 | 1.26 | 1.54 | 1.46 | 0.415 | 1.32 | 1.12 | 1.06 | 1.06
Q fixed | 1.31 | 0.954 | 0.799 | 1.01 | 1.07 | 0.406 | 1.18 | 0.837 | 1.11 | 0.989
R fixed | 0.278 | 0.768 | 0.468 | 0.855 | 1.32 | 0.239 | 0.896 | 0.722 | 0.84 | 1.03
S fixed | 1 | 0.886 | 0.689 | 0.8 | 1.2 | 0.516 | 1.3 | 1 | 0.82 | 0.869
T fixed | 0.903 | 0.989 | 0.796 | 0.865 | 1.16 | 1.03 | 0.96 | 0.942 | 0.762 | 0.761
V fixed | 1.64 | 1.29 | 1.7 | 0.814 | 0.552 | 1.1 | 0.848 | 0.874 | 0.777 | 0.795
W fixed | 1.12 | 1.77 | 1.49 | 1.36 | 0.723 | 0.697 | 0.672 | 1.31 | 1.05 | 1.26
pThr fixed | 1.34 | 1.82 | 0.32 | 0.825 | 0.763 | 1.63 | 0.847 | 0.897 | 0.873 | 0.831
pTyr fixed | 1.5 | 3.93 | 0.629 | 0.894 | 0.978 | 1.79 | 1.05 | 1.06 | 1.06 | 0.83
